Legend:
[1] = biological target: T1, human PD-1 on the cell surface (human, UniProt Q15116 25-288); assay: flow cytometry, 293T-hPD-1 cells, batch FACS#2
T1 construct: whole, on cells; also called cell surface PD-1
Protocol: After centrifugation at 300 g for 5 minutes, the supernatant was discarded. The antibodies were serially diluted 3-fold with FACS buffer to obtain two gradient series solution FACS #1 and FACS #2, with the starting concentration of 200 nM (Table 5, FACS #1) or 100 nM (Table 5, FACS #2, FIG. 2), respectively. Then 100 μL/well was added to a 96-well plate in triplicate, mixed, and incubated at 4° C. for 60 min. The plate was centrifuged and washed three times with FACS buffer. 100 μL/well of 1:800 diluted AF647-anti-hIgG(H+L) (Jackson, Catalog No.: 109-605-003) was added and incubated at 4° C. for 50 minutes. After washing the plate three times with FACS buffer, 100 μL/well of FACS buffer was added to resuspend the cells, and the fluorescence signal was detected on a flow cytometer (BECKMAN COULTER cytoFLEX). The binding activity was fitted using a four-parameter model to calculate the EC₅₀ value of each antibody binding to PD-1.

[2] = biological target: T2, Biotinylated Human VEGF165 (Acro, Catalog No. VE5-H82Q0) (human, UniProt P15692-4 27-191, biotinylated (site not stated)); assay: flow cytometry: antibody titrated on 293T-hPD-1 cells, then mixture of biotin-hVEGF165 and hCTLA4-mFc; PE streptavidin signal; VEGF signal after binding to cell surface PD-1
T2 construct: Bought protein; also called Biotinylated-hVEGF165; Biotin-hVEGF165
Protocol: (§1) 200 μL/well of the cells were added to a 96-well U-bottom plate. After centrifugation at 300 g for 5 minutes, the supernatant was discarded and 100 μL of antibody solution serially diluted with FACS buffer was added to each well in triplicate (with starting concentration of 200 nM, 3-fold serial dilution, and the same volume of FACS buffer was used as a negative control). Mixed well and incubated at 4° C. for 60 min. After washing the plate three times with FACS buffer, a mixture consisting of 1 μg/mL Biotin-hVEGF165 and 1 μg/mL hCTLA4-mFc (DIMA BIOTECH, Catalog No.: PME100017) in a 1:1 volume ratio was added to each well at 100 μL/well to detect the simultaneously binding activity of the trispecific antibodies to CTLA-4 and VEGF after binding to cell surface PD-1. […] After washing the plate three times with FACS buffer, 100 μL/well of PBS solution was added to resuspend the cells, and the fluorescence signal was detected on a flow cytometer (BECKMAN COULTER cytoFLEX). The binding activity was fitted using a four-parameter model, and the EC₅₀ value of each antibody was calculated.

[3] = biological target: T3, hCTLA4-mFc (DIMA BIOTECH, Catalog No. PME100017) (human, UniProt P16410 36-161, limits assumed); assay: flow cytometry: antibody titrated on 293T-hPD-1 cells, then mixture of biotin-hVEGF165 and hCTLA4-mFc; AF647 anti-mIgG signal; CTLA-4 signal after binding to cell surface PD-1
T3 construct: Bought protein; also called human CTLA-4 mouse Fc fusion; not shown: mouse Fc (mFc)
Protocol: as §1

[4] = biological target: T4, human CTLA-4 on the cell surface (human, UniProt P16410 36-223); assay: flow cytometry, CHO-hCTLA-4 cells, batch FACS#4
T4 construct: whole, on cells; also called CHO-hCTLA-4 cells; CHOK1-hCTLA4 cells

[5] = biological target: T5, human VEGF165-his protein (Acro, Catalog No. VE5-H5248) (human, UniProt P15692-4 27-191); assay: competitive ELISA, VEGF165-His coated, biotin-human KDR
T5 construct: Bought protein; also called hVEGF165-His; VEGFA; not shown: his tag

[6] = biological target: T4, human CTLA-4 on the cell surface; assay: flow cytometry competition, CHO-hCTLA-4 cells, biotin-human CD80
Protocol: CHO-hCTLA-4 cells were obtained by trypsin digestion, washed twice with PBS containing 2% FBS (FACS buffer), and resuspended in FACS buffer. 200 μL of the cells were added to a 96-well U-bottom plate, approximately 2×10⁵ cells/well. After centrifugation at 300 g for 5 minutes, the supernatant was discarded. […] After washing three times with FACS buffer, 100 μL/well of 1:800 diluted PE Streptavidin was added and incubated at 4° C. for 50 min. After washing three times with FACS buffer, 150 μL/well of PBS was added to resuspend the cells, and the fluorescence signal was detected on a flow cytometer (BECKMAN COULTER cytoFLEX). The four-parameter model was used to fit the binding activity and the IC₅₀ value of the blocking activity of each antibody was calculated.

T4 sequence (P16410 36-223): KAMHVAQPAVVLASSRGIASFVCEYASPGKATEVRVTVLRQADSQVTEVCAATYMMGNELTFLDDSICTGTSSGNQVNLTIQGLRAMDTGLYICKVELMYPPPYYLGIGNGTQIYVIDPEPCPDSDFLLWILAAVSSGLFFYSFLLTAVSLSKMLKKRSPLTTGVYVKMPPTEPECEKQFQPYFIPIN
T2 sequence (P15692 other isoform, or with tags, fused parts or gaps limits assumed): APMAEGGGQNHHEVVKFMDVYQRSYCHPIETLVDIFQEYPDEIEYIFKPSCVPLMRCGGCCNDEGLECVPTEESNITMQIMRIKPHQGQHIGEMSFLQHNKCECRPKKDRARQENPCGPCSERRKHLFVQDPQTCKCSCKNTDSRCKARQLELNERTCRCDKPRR
T5 sequence (P15692 other isoform, or with tags, fused parts or gaps limits assumed): as above
T1 sequence (Q15116 25-288): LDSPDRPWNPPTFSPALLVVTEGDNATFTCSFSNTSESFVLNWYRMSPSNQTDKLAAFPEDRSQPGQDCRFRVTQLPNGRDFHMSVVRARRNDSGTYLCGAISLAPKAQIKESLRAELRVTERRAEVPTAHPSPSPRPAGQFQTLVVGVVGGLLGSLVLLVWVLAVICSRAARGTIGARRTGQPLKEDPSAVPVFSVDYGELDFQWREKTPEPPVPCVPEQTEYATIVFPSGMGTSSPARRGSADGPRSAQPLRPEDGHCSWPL
T3 sequence (P16410 36-161 limits assumed): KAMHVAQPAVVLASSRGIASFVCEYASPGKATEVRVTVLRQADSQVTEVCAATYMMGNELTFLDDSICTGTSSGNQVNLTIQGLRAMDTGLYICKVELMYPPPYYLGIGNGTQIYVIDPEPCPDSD

EC50 [1]: 2.37 nM
EC50 [2]: 2.83 nM
EC50 [3]: 3.32 nM
EC50 [4]: 4.86 nM
IC50 [5]: 6.76 nM
IC50 [6]: 22.6 nM
B1: HC010-F10 (trispecific antibody, human IgG4 S228P, kappa)
heavy: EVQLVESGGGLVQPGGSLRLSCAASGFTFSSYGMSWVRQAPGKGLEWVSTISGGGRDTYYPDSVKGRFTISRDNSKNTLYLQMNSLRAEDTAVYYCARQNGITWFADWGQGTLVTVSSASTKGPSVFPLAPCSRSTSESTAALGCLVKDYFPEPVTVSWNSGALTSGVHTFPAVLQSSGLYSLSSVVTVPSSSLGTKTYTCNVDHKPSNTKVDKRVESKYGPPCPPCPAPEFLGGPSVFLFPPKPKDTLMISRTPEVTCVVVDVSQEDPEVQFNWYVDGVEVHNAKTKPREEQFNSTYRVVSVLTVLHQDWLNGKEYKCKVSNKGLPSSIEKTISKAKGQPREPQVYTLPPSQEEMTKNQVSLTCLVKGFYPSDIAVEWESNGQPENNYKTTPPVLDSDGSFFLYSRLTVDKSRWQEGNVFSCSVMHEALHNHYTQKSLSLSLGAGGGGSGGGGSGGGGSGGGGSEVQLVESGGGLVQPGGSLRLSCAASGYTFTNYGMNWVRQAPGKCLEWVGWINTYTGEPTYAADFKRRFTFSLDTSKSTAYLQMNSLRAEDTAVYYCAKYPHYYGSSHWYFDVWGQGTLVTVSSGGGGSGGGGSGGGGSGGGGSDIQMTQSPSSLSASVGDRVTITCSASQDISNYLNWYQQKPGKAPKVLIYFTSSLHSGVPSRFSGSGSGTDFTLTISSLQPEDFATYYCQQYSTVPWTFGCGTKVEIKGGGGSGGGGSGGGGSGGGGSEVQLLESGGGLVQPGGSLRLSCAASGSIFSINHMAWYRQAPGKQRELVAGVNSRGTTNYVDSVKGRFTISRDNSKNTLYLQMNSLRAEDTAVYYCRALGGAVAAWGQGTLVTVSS
light: DIQMTQSPSSLSASVGDRVTITCRASESVDNYGISFMNWYQQKPGKAPKLLIYAASNQGSGVPSRFSGSGSGTDFTLTISSLQPEDFATYYCQQSKEVPWTFGGGTKVEIKRTVAAPSVFIFPPSDEQLKSGTASVVCLLNNFYPREAKVQWKVDNALQSGNSQESVTEQDSKDSTYSLSSTLTLSKADYEKHKVYACEVTHQGLSSPVTKSFNRGEC
notes: light: CQ1-3/1-11 VL-kappa; also called H010-F10
